{"source": "patent US6413730", "target": "T1, GST-hElk-L cytoplasmic domain fusion protein (GST-Elk-L cyt) (UniProt P98172)", "T1 sequence": "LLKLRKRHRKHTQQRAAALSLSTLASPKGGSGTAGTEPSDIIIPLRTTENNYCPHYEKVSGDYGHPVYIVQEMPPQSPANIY"}
{"substance": "v-Src", "values": [{"measurement": "in vitro kinase assay with 32P-gamma-ATP, autoradiography", "result": "A GST fusion protein containing the cytoplasmic domain of human Elk-L (residues 262-343) was tyrosine phosphorylated by v-Src in vitro"}]}
